Measured values as given in patent publication US20240336909.

Experiments:
[1] = target: AxCT mask27 EpCAM H90.2 NCLV
[2] = target: AxCT mask27 EGFR EH104 L056 version 1
[3] = target: AxCT mask27 EpCAM H90.2 L073 version 1
[4] = target: AxCT mask27 EpCAM H90.2 L076 version 1
[5] = target: AxCT mask27 EGFR EH104 L063 version 1
[6] = target: AxCT mask27 EpCAM H90.2 L064 version 1
[7] = target: AxCT mask27 EGFR EH104 L057 version 1
[8] = target: AxCT mask27 EpCAM H90.2 L041 version 1
[9] = target: AxCT mask27 EGFR EH104 L059 version 1
[10] = target: AxCT mask27 EpCAM H90.2 L060 version 1
[11] = target: AxCT mask27 EGFR EH104 L061 version 1
[12] = target: AxCT mask27 EGFR EH104 L071 version 1
[13] = target: AxCT mask27 EGFR EH104 L054 version 1
[14] = target: AxCT mask27 EGFR EH104 L068 version 1
[15] = target: AxCT mask27 EGFR EH104 L070 version 1
[16] = target: AxCT mask27 EGFR EH104 L062 version 1
[17] = target: AxCT mask27 EGFR EH104 L060 version 1
[18] = target: AxCT mask27 EGFR EH104 L069 version 1
[19] = target: AxCT mask27 EGFR EH104 L072 version 1
[20] = target: AxCT mask27 EpCAM H90.2 L063 version 1
[21] = target: AxCT mask27 EGFR EH104 L043 version 1
[22] = target: AxCT mask27 EGFR EH104 L001 version 1
[23] = target: AxCT mask27 EGFR EH104 L058 version 1
[24] = target: AxCT mask27 EGFR EH104 L065 version 1
[25] = target: AxCT mask27 EGFR EH104 L064 version 1
[26] = target: AxCT mask27 EGFR EH104 L066 version 1
[27] = target: AxCT mask27 EpCAM H90.2 L059 version 1
[28] = target: AxCT mask27 EpCAM H90 L001 version 1
[29] = target: AxCT mask27 EGFR EH104 L073 version 1
[30] = target: AxCT mask27 EpCAM H90.2 L061 version 1
[31] = target: AxCT mask27 EGFR EH104 L040 version 1
[32] = target: AxCT mask27 EGFR EH104 L055 version 1
[33] = target: AxCT mask27 EpCAM H90.2 L043 version 1
[34] = target: AxCT mask27 EpCAM H90.2 L075 version 1
[35] = target: AxCT mask27 EGFR EH104 L041 version 1
[36] = target: AxCT mask27 EpCAM H90.2 L040 version 1
[37] = target: AxCT mask27 EGFR EH104 L067 version 1

B1: MMP-7 (protein)
chain: YSLFPNSPKWTSKVVTYRIVSYTRDLPHITVDRLVSKALNMWGKEIPLHFRKVVWGTADIMIGFARGAHGDSYPFDGPGNTLAHAFAPGTGLGGDAHFDEDERWTDGSSLGINFLYAATHELGHSLGMGHSSDPNAVMYPTYGNGDPQNFKLSQDDIKGIQKLYGKRSNSRKK
- Percent cleavage [1]: 0%
- Percent cleavage [2]: 6%
- Percent cleavage [3]: 43%
- Percent cleavage [4]: 0%
- Percent cleavage [5]: 37%
- Percent cleavage [6]: 32%
- Percent cleavage [7]: 0%
- Percent cleavage [8]: 0%
- Percent cleavage [9]: 0%
- Percent cleavage [10]: 9%
- Percent cleavage [11]: 26%
- Percent cleavage [12]: 30%
- Percent cleavage [13]: 24%
- Percent cleavage [14]: 0%
- Percent cleavage [15]: 9%
- Percent cleavage [16]: 25%
- Percent cleavage [17]: 9%
- Percent cleavage [18]: 0%
- Percent cleavage [19]: 0%
- Percent cleavage [20]: 48%
- Percent cleavage [21]: 0%
- Percent cleavage [22]: 71%
- Percent cleavage [23]: 0%
- Percent cleavage [24]: 60%
- Percent cleavage [25]: 28%
- Percent cleavage [26]: 0%
- Percent cleavage [27]: 0%
- Percent cleavage [28]: 92%
- Percent cleavage [29]: 27%
- Percent cleavage [30]: 35%
- Percent cleavage [31]: 0%
- Percent cleavage [32]: 67%
- Percent cleavage [33]: 0%
- Percent cleavage [34]: 0%
- Percent cleavage [35]: 0%
- Percent cleavage [36]: 0%
- Percent cleavage [37]: 0%

B2: MMP-1 (protein)
chain: FVLTEGNPRWEQTHLTYRIENYTPDLPRADVDHAIEKAFQLWSNVTPLTFTKVSEGQADIMISFVRGDHRDNSPFDGPGGNLAHAFQPGPGIGGDAHFDEDERWTNNFREYNLHRVAAHELGHSLGLSHSTDIGALMYPSYTFSGDVQLAQDDIDGIQAIYGRSQNPVQPIGPQTPKACDSKLTFDAITTIRGEVMFFKDRFYMRTNPFYPEVELNFISVFWPQLPNGLEAAYEFADRDEVRFFKGNKYWAVQGQNVLHGYPKDIYSSFGFPRTVKHIDAALSEENTGKTYFFVANKYWRYDEYKRSMDPGYPKMIAHDFPGIGHKVDAVFMKDGFFYFFHGTRQYKFDPKTKRILTLQKANSWFNCRKN
- Percent cleavage [1]: 0%
- Percent cleavage [2]: 6%
- Percent cleavage [3]: 0%
- Percent cleavage [4]: 0%
- Percent cleavage [5]: 0%
- Percent cleavage [6]: 0%
- Percent cleavage [7]: 7%
- Percent cleavage [8]: 0%
- Percent cleavage [9]: 0%
- Percent cleavage [10]: 0%
- Percent cleavage [11]: 0%
- Percent cleavage [12]: 0%
- Percent cleavage [13]: 0%
- Percent cleavage [14]: 0%
- Percent cleavage [15]: 0%
- Percent cleavage [16]: 0%
- Percent cleavage [17]: 0%
- Percent cleavage [18]: 0%
- Percent cleavage [19]: 0%
- Percent cleavage [20]: 0%
- Percent cleavage [21]: 0%
- Percent cleavage [22]: 40%
- Percent cleavage [23]: 0%
- Percent cleavage [24]: 10%
- Percent cleavage [25]: 0%
- Percent cleavage [26]: 6%
- Percent cleavage [27]: 0%
- Percent cleavage [28]: 48%
- Percent cleavage [29]: 0%
- Percent cleavage [30]: 0%
- Percent cleavage [31]: 6%
- Percent cleavage [32]: 10%
- Percent cleavage [33]: 0%
- Percent cleavage [34]: 0%
- Percent cleavage [35]: 0%
- Percent cleavage [36]: 0%
- Percent cleavage [37]: 0%

B3: MMP-12 (protein)
chain: GPVWRKHYITYRINNYTPDMNREDVDYAIRKAFQVWSNVTPLKFSKINTGMADILVVFARGAHGDFHAFDGKGGILAHAFGPGSGIGGDAHFDEDEFWTTHSGGTNLFLTAVHEIGHSLGLGHSSDPKAVMFPTYKYVDINTFRLSADDIRGIQSLYGDPKENQRLPNPDNSEPALCDPNLSFDAVTTVGNKIFFFKDRFFWLKVSERPKTSVNLISSLWPTLPSGIEAAYEIEARNQVFLFKDDKYWLISNLRPEPNYPKSIHSFGFPNFVKKIDAAVFNPRFYRTYFFVDNQYWRYDERRQMMDPGYPKLITKNFQGIGPKIDAVFYSKNKYYYFFQGSNQFEYDFLLQRITKTLKSNSWFGC
- Percent cleavage [1]: 0%
- Percent cleavage [2]: 12%
- Percent cleavage [3]: 36%
- Percent cleavage [4]: 0%
- Percent cleavage [5]: 31%
- Percent cleavage [6]: 36%
- Percent cleavage [7]: 18%
- Percent cleavage [8]: 0%
- Percent cleavage [9]: 62%
- Percent cleavage [10]: 16%
- Percent cleavage [11]: 49%
- Percent cleavage [12]: 51%
- Percent cleavage [13]: 30%
- Percent cleavage [14]: 9%
- Percent cleavage [15]: 19%
- Percent cleavage [16]: 51%
- Percent cleavage [17]: 18%
- Percent cleavage [18]: 63%
- Percent cleavage [19]: 48%
- Percent cleavage [20]: 33%
- Percent cleavage [21]: 0%
- Percent cleavage [22]: 68%
- Percent cleavage [23]: 9%
- Percent cleavage [24]: 68%
- Percent cleavage [25]: 34%
- Percent cleavage [26]: 16%
- Percent cleavage [27]: 71%
- Percent cleavage [28]: 91%
- Percent cleavage [29]: 31%
- Percent cleavage [30]: 64%
- Percent cleavage [31]: 13%
- Percent cleavage [32]: 72%
- Percent cleavage [33]: 0%
- Percent cleavage [34]: 0%
- Percent cleavage [35]: 0%
- Percent cleavage [36]: 0%
- Percent cleavage [37]: 26%
